T1: Human RAD51 (human, UniProt Q06609 1-339)
T1 sequence (looked up): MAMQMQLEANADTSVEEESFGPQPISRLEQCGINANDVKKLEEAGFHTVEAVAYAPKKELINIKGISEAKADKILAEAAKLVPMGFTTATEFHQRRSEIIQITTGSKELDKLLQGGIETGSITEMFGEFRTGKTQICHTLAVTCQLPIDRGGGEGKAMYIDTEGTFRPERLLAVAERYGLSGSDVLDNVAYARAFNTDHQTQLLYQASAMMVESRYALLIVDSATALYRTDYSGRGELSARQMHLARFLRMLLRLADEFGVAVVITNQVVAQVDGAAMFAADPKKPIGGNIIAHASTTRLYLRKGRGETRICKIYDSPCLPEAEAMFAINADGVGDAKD


How the values were obtained:
Human RAD51 = biological target: T1, Human RAD51; assay: pull-down
RAD51 = RAD51 (human, UniProt Q06609 1-339); assay: EMSA

Row | Binder | binding result (Human RAD51) | binding result (RAD51)
1 | Human GEMIN2 (natural protein, UniProt O14893 1-280, looked up) MRRAELAGLKTMAWVPAESAVEELMPRLLPVEPCDLTEGFDPSVPPRTPQEYLRRVQIEAAQCPDVVVAQIDPKKLKRKQSVNISLSGCQPAPEGYSPTLQWQQQQVAQFSTVRQNVNKHRSHWKSQQLDSNVTMPKSEDEEGWKKFCLGEKLCADGAVGPATNESPGIDYVQIGFPPLLSIVSRMNQATVTSVLEYLSNWFGERDFTPELGRWLYALLACLEKPLLPEAHSLIRQLARRCSEVRLLVDSKDDERVPALNLLICLVSRYFDQRDLADEPS | binds | 
2 | 49-mer dsDNA (dsDNA) DNA 1: GTCCCAGGCCATTACAGATCAATCCTGAGCATGTTTACCAAGCGCATTG DNA 2: CAATGCGCTTGGTAAACATGCTCAGGATTGATCTGTAATGGCCTGGGAC |  | binds
